Where two headings read alike, the source gives them in different places.
How the values were obtained:
Test in all cases: pull-down
ΔWRC230 [1] = biological target: T1, ΔWRC230 (human, UniProt Q7L576 1-1253; Q9Y2A7 1-1128; Q92558 1-230; Q9NYB9 1-158; Q8WUW1 1-75)
WRC230WCA [2] = biological target: T2, WRC230WCA (human, UniProt Q7L576 1-1253; Q9Y2A7 1-1128; Q92558 1-230; Q92558 485-559; Q9NYB9 1-158; …)
ΔWRC230 [3] = biological target: T1, ΔWRC230; remark: listed apart in the source
WRC230WCA [4] = biological target: T2, WRC230WCA; remark: listed apart in the source

B1: GST-Arf1 (natural protein)
chain: not shown
Kd (ΔWRC230 [1]): ~0.66 µM
Kd (WRC230WCA [2]): ~8.2 µM
Kd (ΔWRC230 [3]): ~22.6 µM
Kd (WRC230WCA [4]): ~107 µM
